# B1: Calnexin (Homo sapiens), P27824 (parent)
# chain: MEGKWLLCMLLVLGTAIVEAHDGHDDDVIDIEDDLDDVIEEVEDSKPDTTAPPSSPKVTYKAPVPTGEVYFADSFDRGTLSGWILSKAKKDDTDDEIAKYDGKWEVEEMKESKLPGDKGLVLMSRAKHHAISAKLNKPFLFDTKPLIVQYEVNFQNGIECGGAYVKLLSKTPELNLDQFHDKTPYTIMFGPDKCGEDYKLHFIFRHKNPKTGIYEEKHAKRPDADLKTYFTDKKTHLYTLILNPDNSFEILVDQSVVNSGNLLNDMTPPVNPSREIEDPEDRKPEDWDERPKIPDPEAVKPDDWDEDAPAKIPDEEATKPEGWLDDEPEYVPDPDAEKPEDWDEDMDGEWEAPQIANPRCESAPGCGVWQRPVIDNPNYKGKWKPPMIDNPSYQGIWKPRKIPNPDFFEDLEPFRMTPFSAIGLELWSMTSDIFFDNFIICADRRIVDDWANDGWGLKKAADGAAEPGVVGQMIEAAEERPWLWVVYILTVALPVFLVILFCCSGKKQTSGMEYKKTDAPQPDVKEEEEEKEEEKDKGDEEEEGEEKLEEKQKSDAEEDGGTVSQEEEDRKPKAEEDEILNRSPRNRKPRRE
# Variants of: B1
# Conditions: with SEC61A1, P61619
row,effect of a mutation on the interaction,Variant
1,disrupting interaction,P494L

# Variants of: B1
# Conditions: with rl12_human RPL12, P30050
row,effect of a mutation on the interaction,Variant
1,disrupting interaction,P494L
